Consider five molecules from US20110256127A1 (Genentech, published 2011).

Assay [1] has as its target LRP6.E1-E2-Fc (human). Briefly: ELISA.
For assay [2], the target named is T1, LRP6.E3-E4-Fc (human).
T1 construct: also called LRP6.E3-4-Fc
The assay is described as follows: ELISA. (In an ELISA, binding on a coated surface is turned into a signal by an enzyme label.)

Chain of LRP6.E1-E2-Fc (human) (chain, as listed by the source limits assumed): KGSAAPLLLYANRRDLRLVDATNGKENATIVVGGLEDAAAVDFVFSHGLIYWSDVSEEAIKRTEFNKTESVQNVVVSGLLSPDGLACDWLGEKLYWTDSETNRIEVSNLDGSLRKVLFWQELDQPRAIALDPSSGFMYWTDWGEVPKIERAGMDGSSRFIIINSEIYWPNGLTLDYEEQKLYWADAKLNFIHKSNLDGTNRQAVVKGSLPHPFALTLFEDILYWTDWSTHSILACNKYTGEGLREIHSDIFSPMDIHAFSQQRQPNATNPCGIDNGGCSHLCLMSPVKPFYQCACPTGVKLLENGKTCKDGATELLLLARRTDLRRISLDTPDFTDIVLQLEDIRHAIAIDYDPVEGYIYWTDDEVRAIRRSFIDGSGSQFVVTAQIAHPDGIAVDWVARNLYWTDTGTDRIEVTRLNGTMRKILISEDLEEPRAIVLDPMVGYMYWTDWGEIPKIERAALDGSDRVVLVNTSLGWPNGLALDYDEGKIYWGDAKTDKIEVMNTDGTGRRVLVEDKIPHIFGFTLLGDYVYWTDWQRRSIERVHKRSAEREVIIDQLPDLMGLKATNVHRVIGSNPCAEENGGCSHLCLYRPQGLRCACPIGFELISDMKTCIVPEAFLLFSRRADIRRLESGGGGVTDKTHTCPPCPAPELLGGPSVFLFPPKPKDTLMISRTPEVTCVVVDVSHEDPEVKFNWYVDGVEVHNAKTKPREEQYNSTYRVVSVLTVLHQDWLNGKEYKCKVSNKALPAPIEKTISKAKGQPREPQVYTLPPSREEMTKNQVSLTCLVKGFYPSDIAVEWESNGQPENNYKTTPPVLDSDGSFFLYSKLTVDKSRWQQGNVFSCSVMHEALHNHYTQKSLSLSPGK
T1 sequence (chain, as listed by the source limits assumed): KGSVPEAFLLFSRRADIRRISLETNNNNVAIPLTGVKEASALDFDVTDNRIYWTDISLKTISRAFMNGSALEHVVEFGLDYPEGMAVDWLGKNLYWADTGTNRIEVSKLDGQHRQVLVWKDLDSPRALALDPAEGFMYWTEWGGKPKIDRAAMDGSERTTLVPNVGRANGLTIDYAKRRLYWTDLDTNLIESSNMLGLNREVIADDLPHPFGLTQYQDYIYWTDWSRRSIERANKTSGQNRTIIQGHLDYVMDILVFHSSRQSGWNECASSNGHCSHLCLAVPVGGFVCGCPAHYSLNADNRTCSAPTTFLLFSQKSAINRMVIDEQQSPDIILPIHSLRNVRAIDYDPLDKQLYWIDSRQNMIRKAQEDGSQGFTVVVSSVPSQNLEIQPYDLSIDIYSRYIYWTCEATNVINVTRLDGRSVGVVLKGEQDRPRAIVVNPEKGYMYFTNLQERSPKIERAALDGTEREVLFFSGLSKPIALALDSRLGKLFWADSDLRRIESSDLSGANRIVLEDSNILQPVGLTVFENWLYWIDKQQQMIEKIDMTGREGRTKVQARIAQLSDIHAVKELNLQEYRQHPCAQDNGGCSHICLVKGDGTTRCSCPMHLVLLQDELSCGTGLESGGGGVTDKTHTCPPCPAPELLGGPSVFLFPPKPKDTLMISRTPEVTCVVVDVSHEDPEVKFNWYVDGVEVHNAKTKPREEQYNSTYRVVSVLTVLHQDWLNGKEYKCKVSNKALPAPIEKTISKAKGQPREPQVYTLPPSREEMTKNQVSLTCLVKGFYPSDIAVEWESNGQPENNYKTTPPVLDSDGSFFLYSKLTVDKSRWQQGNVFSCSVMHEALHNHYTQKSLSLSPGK

B1: YW211.03 antibody (antibody, V domains shown)
VH: EVQLVESGGGLVQPGGSLRLSCAASGFTFTGYWIHWVRQAPGKGLEWVGTISPAGGSTDYADSVKGRFTISADTSKNTAYLQMNSLRAEDTAVYYCARTDWRFHHAGEYAMDYWGQGTLVTVSS
VL: DIQMTQSPSSLSASVGDRVTITCRASQDVSTAVAWYQQKPGKAPKLLIYSASFLYSGVPSRFSGSGSGTDFTLTISSLQPEDFATYYCQQSYTTPPTFGQGTKVEIKR
As to B1, the binding result is on record as “no binding” in assay [1] and “binds” in assay [2].

B2: YW211.08 antibody (antibody, V domains shown)
VH: EVQLVESGGGLVQPGGSLRLSCAASGFTFTDYWIHWVRQAPGKGLEWVAGISPDGGSTYYADSVKGRFTISADTSKNTAYLQMNSLRAEDTAVYYCARWSYISRYFSSVMDYWGQGTLVTVSS
VL: B1 VL
As for B2, the binding result is “no binding” in assay [1] and “binds” in assay [2].

B3: YW211.12 antibody (antibody, V domains shown)
VH: EVQLVESGGGLVQPGGSLRLSCAASGFTFTGNDIHWVRQAPGKGLEWVGRIYPYGGYTDYADSVKGRFTISADTSKNTAYLQMNSLRAEDTAVYYCAKEVTYHLFDYWGQGTLVTVSS
VL: B1 VL
On to B3, for which the binding result in assay [1] is given as “no binding”; in assay [2], “binds”.

B4: YW211.11 antibody (antibody, V domains shown)
VH: EVQLVESGGGLVQPGGSLRLSCAASGFTFTNYDIHWVRQAPGKGLEWVASIYPAGGDTDYADSVKGRFTISADTSKNTAYLQMNSLRAEDTAVYYCARSPGWALRGAMDYWGQGTLVTVSS
VL: B1 VL
For B4, the binding result in assay [1] was “no binding”; in assay [2], “binds”.

B5: YW211.33 antibody (antibody, V domains shown)
VH: EVQLVESGGGLVQPGGSLRLSCAASGFTFSGSSISWVRQAPGKGLEWVGVISPSSGATYYADSVKGRFTISADTSKNTAYLQMNSLRAEDTAVYYCARWPAGAFLGYYGMDYWGQGTLVTVSS
VL: B1 VL
Take B5: the binding result in assay [1] is reported as “no binding”; in assay [2] it was “binds”.
